Target: Fbw7α (UniProt Q969H0)
Assay: anti-HA co-IP, anti-FLAG blot
Details: reference: wild-type HA-SV40 LT; sites T701

Substance: SV40 LT (from UniProt P03070) HA-SV40 LT T701A
- binding against the reference: lost
